B1: *9: human CYP2D6 variant allele *9 (PV00434), SEQ ID NO: 5 (protein, UniProt P10635 1-497, looked up, variant K281*)
Cytochrome P450 2D6: MGLEALVPLAVIVAIFLLLVDLMHRRQRWAARYPPGPLPLPGLGNLLHVDFQNTPYCFDQLRRRFGDVFSLQLAWTPVVVLNGLAAVREALVTHGEDTADRPPVPITQILGFGPRSQGVFLARYGPAWREQRRFSVSTLRNLGLGKKSLEQWVTEEAACLCAAFANHSGRPFRPNGLLDKAVSNVIASLTCGRRFEYDDPRFLRLLDLAQEGLKEESGFLREVLNAVPVLLHIPALAGKVLRFQKAFLTQLDELLTEHRMTWDPAQPPRDLTEAFLAEMEAKGNPESSFNDENLRIVVADLFSAGMVTTSTTLAWGLLLMILHPDVQRRVQQEIDDVIGQVRRPEMGDQAHMPYTTAVIHEVQRFGDIVPLGVTHMTSRDIEVQGFRIPKGTTLITNLSSVLKDEAVWEKPFRFHPEHFLDAQGHFVKPEAFLPFSAGRRACLGEPLARMELFLFFTSLLQHFSFSVPTGQPRPSHHGVFAFLVSPSPYELCAVPR
B2: *10: human CYP2D6 variant allele *10 (PV00435), SEQ ID NO: 6 (protein, UniProt P10635 1-497, looked up, variant P34S S486T)
Cytochrome P450 2D6: MGLEALVPLAVIVAIFLLLVDLMHRRQRWAARYSPGPLPLPGLGNLLHVDFQNTPYCFDQLRRRFGDVFSLQLAWTPVVVLNGLAAVREALVTHGEDTADRPPVPITQILGFGPRSQGVFLARYGPAWREQRRFSVSTLRNLGLGKKSLEQWVTEEAACLCAAFANHSGRPFRPNGLLDKAVSNVIASLTCGRRFEYDDPRFLRLLDLAQEGLKEESGFLREVLNAVPVLLHIPALAGKVLRFQKAFLTQLDELLTEHRMTWDPAQPPRDLTEAFLAEMEKAKGNPESSFNDENLRIVVADLFSAGMVTTSTTLAWGLLLMILHPDVQRRVQQEIDDVIGQVRRPEMGDQAHMPYTTAVIHEVQRFGDIVPLGVTHMTSRDIEVQGFRIPKGTTLITNLSSVLKDEAVWEKPFRFHPEHFLDAQGHFVKPEAFLPFSAGRRACLGEPLARMELFLFFTSLLQHFSFSVPTGQPRPSHHGVFAFLVTPSPYELCAVPR
B3: *29: human CYP2D6 variant allele *29 (PV00453), SEQ ID NO: 8 (protein, UniProt P10635 1-497, looked up, variant V136I R296C V338M S486T)
Cytochrome P450 2D6: MGLEALVPLAVIVAIFLLLVDLMHRRQRWAARYPPGPLPLPGLGNLLHVDFQNTPYCFDQLRRRFGDVFSLQLAWTPVVVLNGLAAVREALVTHGEDTADRPPVPITQILGFGPRSQGVFLARYGPAWREQRRFSISTLRNLGLGKKSLEQWVTEEAACLCAAFANHSGRPFRPNGLLDKAVSNVIASLTCGRRFEYDDPRFLRLLDLAQEGLKEESGFLREVLNAVPVLLHIPALAGKVLRFQKAFLTQLDELLTEHRMTWDPAQPPRDLTEAFLAEMEKAKGNPESSFNDENLCIVVADLFSAGMVTTSTTLAWGLLLMILHPDVQRRVQQEIDDMIGQVRRPEMGDQAHMPYTTAVIHEVQRFGDIVPLGVTHMTSRDIEVQGFRIPKGTTLITNLSSVLKDEAVWEKPFRFHPEHFLDAQGHFVKPEAFLPFSAGRRACLGEPLARMELFLFFTSLLQHFSFSVPTGQPRPSHHGVFAFLVTPSPYELCAVPR
B4: *14: human CYP2D6 variant allele *14 (PV00439), SEQ ID NO: 7 (protein, UniProt P10635 1-497, looked up, variant P34S G169R R296C S486T)
Cytochrome P450 2D6: MGLEALVPLAVIVAIFLLLVDLMHRRQRWAARYSPGPLPLPGLGNLLHVDFQNTPYCFDQLRRRFGDVFSLQLAWTPVVVLNGLAAVREALVTHGEDTADRPPVPITQILGFGPRSQGVFLARYGPAWREQRRFSVSTLRNLGLGKKSLEQWVTEEAACLCAAFANHSRRPFRPNGLLDKAVSNVIASLTCGRRFEYDDPRFLRLLDLAQEGLKEESGFLREVLNAVPVLLHIPALAGKVLRFQKAFLTQLDELLTEHRMTWDPAQPPRDLTEAFLAEMEKAKGNPESSFNDENLCIVVADLFSAGMVTTSTTLAWGLLLMILHPDVQRRVQQEIDDVIGQVRRPEMGDQAHMPYTTAVIHEVQRFGDIVPLGVTHMTSRDIEVQGFRIPKGTTLITNLSSVLKDEAVWEKPFRFHPEHFLDAQGHFVKPEAFLPFSAGRRACLGEPLARMELFLFFTSLLQHFSFSVPTGQPRPSHHGVFAFLVTPSPYELCAVPR

Test system: CYP2D6
Experiment: Functional CYP2D6 in vitro assay: HEK-Blue cells transiently transfected with a CYP2D6 variant, P450-Glo luminescence with Luciferin-ME EGE, normalized to secreted NanoLuc
Format: cell-based, human
Conditions: one-way ANOVA followed by Dunnett post hoc test, categories: loss, decrease, normal, increase of function
Protocol: Therefore the CYP2D6 coding sequence (CDS) of interest is cloned into pcDNA3.1-HISC vector, and variants of interest are produced via site-directed mutagenesis (FIG. 1; step 1).
pcDNA3.1-HISC (A) and pNL1.3CMV[secNluc/CMV] (B) vectors are co-transfected in HEK-Blue™ cells (FIG. 1; step 2). 48 hours after transfection, secreted NanoLuc is detected and measured by luminescence using a multi-plate reader (FIG. 1; step 3). Following NanoLuc detection, old media is replaced with Luciferin ME-EGE containing media (FIG. 1; step 4). After 3 hours incubation at 37° C., cells are lysed and luciferin production (proportional to CYP2D6 activity) is measured using a multi-plate reader (FIG. 1; step 5).
CYP2D6 cDNA was obtained from total liver RNA (Ambion®, Life Technology, Wien, Austria), following Reverse-Transcription-PCR (RT-PCR) using the Quantitect® Reverse Transcription kit (Qiagen, Hilden, Germany) following manufacturer instructions. The CYP2D6 coding sequence (CDS) was then amplified using the following oligonucleotide primers: 5′-[…]-3′ (forward primer) and 5′-[…]-3′ (reverse primer). The CYP2D6 CDS was then cloned into the pcDNA3.1-HISC eukaryotic protein expression vector under the control of the CMV immediate enhancer and promoter, using the NheI and KpnI restriction digestion enzymes (Thermo Scientific, Waltham, Mass., USA). […] All the other tested CYP2D6 variants were similarly created. After production, vectors and cloned inserts were verified with Sanger sequencing against the wild-type reference sequence (SEQ ID No: 2).
Cell culture and transfection Human Embryonic Kidney (HEK)-Blue (HEK-Blue™ IL-4/IL-13 cells, Invivogen, Toulouse, France) cells, an engineered cell line derived from HEK-293 cells, were cultured in a humidified incubator at 37° C. with 5% CO2 with Dulbecco's Modified Eagles Medium (DMEM) supplemented with 4.5 g/L glucose, 10% (v/v) Fetal Bovine Serum (FBS), 1.5% NaHCO3, 50 U/mL penicillin, 50 μg/mL streptomycin, 10 μg/mL Blasticidin and 100 μg/mL Zeocin™ (Invivogen, Toulouse, France). Media was replaced three times weekly. […]
Forty-eight hours following transfection, a 20 μL aliquot of the supernatant was transferred from each well into a new white 96-well Nunclon™ A Surface plate for the detection of the secreted NanoLuc® levels using the Nano-Glo® Luciferase assay (Promega, Mannheim, Germany). […] Following three minutes incubation at room temperature (RT), luminescence was measured using the Spark® 10M multimode multiplate reader (Tecan, Grodig, Austria), keeping an optical density filter of 1 (OD1) and 1 second of integration time. Luminescence levels directly correspond to the amount of secreted NanoLuc®, which is used for normalization of transfection efficiency. […]

**Q.** Which “function category of the variant versus *1 and *3 controls” value does the source give for B1 here?
**A.** Its value is “decrease of function”.

**Q.** For B2, which “function category of the variant versus *1 and *3 controls” value is on record?
**A.** The value was “decrease of function”.

**Q.** With B3 as the molecule, how does the “function category of the variant versus *1 and *3 controls” value read?
**A.** The value was “decrease of function”.

**Q.** How did the “function category of the variant versus *1 and *3 controls” value turn out when B4 was run?
**A.** The value was “decrease of function”.
